Where a chain is given by its changes, count along the chain named. Names and notes keep the numbering of the source. Values belong to the binder of their own block, whether it stands above or below them.
Experiments:
[1] = molecular target: T1, recombinant human IL-23 (human, UniProt Q9NPF7 20-189; P29460 23-328); test: IL-23-IL-23R inhibition ELISA (Evaluation Method A), side by side with brazikumab
T1 construct: Heterodimer of p19 and p40; also called hIL-23; interleukin-23; not shown: single C-terminal 6xHis tag
T1 sequence 1: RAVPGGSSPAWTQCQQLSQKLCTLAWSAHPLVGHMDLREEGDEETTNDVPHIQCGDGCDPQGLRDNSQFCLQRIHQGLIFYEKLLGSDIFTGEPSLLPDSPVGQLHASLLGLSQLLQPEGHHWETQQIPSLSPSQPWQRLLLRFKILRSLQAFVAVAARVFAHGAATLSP
T1 sequence 2: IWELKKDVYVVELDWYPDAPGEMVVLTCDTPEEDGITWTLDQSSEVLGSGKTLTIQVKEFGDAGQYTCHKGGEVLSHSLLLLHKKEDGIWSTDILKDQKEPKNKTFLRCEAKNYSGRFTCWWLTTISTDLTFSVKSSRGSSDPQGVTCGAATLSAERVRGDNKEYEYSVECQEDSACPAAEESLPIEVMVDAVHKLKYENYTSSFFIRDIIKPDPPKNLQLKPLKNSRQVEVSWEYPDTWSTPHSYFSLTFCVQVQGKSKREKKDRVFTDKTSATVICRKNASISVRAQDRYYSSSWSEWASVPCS
Procedure: (§1) Maxisorp 96-well plates were coated overnight with 50 μl/well 0.3 μg/ml IL-23R-Fc then blocked with 4% milk, 1% BSA.

[2] = molecular target: T2, Human IL-12 (human, UniProt P29459 23-219; P29460 23-328); test: binding or inhibition ELISA (which of the two is not said)
T2 sequence (looked up) 1: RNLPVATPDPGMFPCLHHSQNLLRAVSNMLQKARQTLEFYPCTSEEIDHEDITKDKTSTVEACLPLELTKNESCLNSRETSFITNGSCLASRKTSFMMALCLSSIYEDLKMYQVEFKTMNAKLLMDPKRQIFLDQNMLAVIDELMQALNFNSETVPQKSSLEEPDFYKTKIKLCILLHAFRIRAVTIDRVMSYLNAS
T2 sequence (looked up) 2: T1 sequence 2

[3] = molecular target: T3, rhesus monkey IL-12 (rhesus monkey, UniProt P48091 23-219; P48095 23-328); test: as above
T3 sequence (looked up) 1: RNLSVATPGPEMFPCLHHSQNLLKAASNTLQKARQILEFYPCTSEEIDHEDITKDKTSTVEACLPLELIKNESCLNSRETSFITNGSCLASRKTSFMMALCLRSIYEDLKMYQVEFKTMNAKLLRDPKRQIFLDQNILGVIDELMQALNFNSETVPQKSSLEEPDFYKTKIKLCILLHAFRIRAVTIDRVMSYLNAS
T3 sequence (looked up) 2: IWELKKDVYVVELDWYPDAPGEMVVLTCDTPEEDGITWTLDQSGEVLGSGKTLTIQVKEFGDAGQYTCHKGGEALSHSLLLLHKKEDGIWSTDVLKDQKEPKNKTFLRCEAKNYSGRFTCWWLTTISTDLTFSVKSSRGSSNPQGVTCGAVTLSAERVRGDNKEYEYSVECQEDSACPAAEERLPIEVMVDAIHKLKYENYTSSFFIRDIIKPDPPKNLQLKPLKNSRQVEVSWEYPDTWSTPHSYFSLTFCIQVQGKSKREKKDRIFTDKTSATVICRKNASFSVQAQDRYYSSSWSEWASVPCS

[4] = molecular target: IL-6 (Homo sapiens (Human), UniProt P05231 30-212); test: as above
[5] = molecular target: T4, THP-1 derived nhIL-23 (human, UniProt Q9NPF7 20-189; P29460 23-328); test: cell-based or functional assay
T4 sequence (looked up) 1: T1 sequence 1
T4 sequence (looked up) 2: T1 sequence 2

[6] = molecular target: T1, recombinant human IL-23; test: IL-23-IL-23R neutralisation ELISA
Procedure: as §1
(§2) The Family L ICVD 12G1 underwent sequence modification to produce multiple variant ICVDs. These variant ICVDs were tested in the potency and protease stability assays detailed above.

[7] = molecular target: T1, recombinant human IL-23; test: SPR (Biacore), recombinant human IL-23 captured by an anti-p40 mAb on the chip, ICVD flowed over; average KD
[8] = molecular target: T1, recombinant human IL-23; test: IL-23-IL-23R neutralisation ELISA; one experiment, left out of the average by the filing as an outlier
[9] = molecular target: T1, recombinant human IL-23; test: IL-23-IL-23R neutralisation ELISA; average of 5 independent experiments
Procedure: as §1, §2

[10] = molecular target: T1, recombinant human IL-23; test: IL-23-IL-23R neutralisation ELISA (Evaluation Method A): ICVD titrated with recombinant human IL-23, binding to coated IL-23R-Fc
Procedure: as §1

[11] = molecular target: T5, human TNFα (human, UniProt P01375 77-233); test: competition ELISA on plate-coated human TNFα; competitor 2 nM biotinylated adalimumab, detected with ExtrAvidin-HRP, A450
T5 construct: also called TNF-alpha
Procedure: ELISA plates were coated with 100 ng/mL human TNFα in 250 μg/mL bovine serum albumin (BSA) in phosphate buffered saline (1×PBS) and blocked with 1% BSA in 1× PBS. […] Otherwise 1% BSA was used as an assay diluent.

[12] = molecular target: T1, recombinant human IL-23; test: IL-23-IL-23R neutralisation ELISA (sheet title 'IL-23 IL23R ELISA'); construct blocks binding of IL-23 to IL-23R; A450

T5 sequence (P01375 77-233 limits assumed): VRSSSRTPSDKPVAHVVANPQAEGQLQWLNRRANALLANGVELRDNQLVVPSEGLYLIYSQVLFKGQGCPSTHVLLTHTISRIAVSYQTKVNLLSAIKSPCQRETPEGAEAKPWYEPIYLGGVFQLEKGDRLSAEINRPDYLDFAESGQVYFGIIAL
Sequence of IL-6 (P05231 30-212 limits assumed): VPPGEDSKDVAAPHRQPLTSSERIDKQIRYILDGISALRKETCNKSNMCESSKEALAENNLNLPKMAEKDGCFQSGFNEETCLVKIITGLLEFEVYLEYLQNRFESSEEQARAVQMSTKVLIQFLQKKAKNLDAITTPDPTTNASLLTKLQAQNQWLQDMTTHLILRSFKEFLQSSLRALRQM

Mouse splenocyte (EC50; mIL-17 secretion, Evaluation Method C) [5]: 5.2 nM
EC50 [6]: 0.26 nM
B2: ID-L252T (VHH)
VHH: EVQLVESGGGQVQPGGSLSLSCESSVSIWSFKVMGWFRQAPGKELELVATITTGGSPDYSDSVKGRFTLSRDYDKRTVYLQMNSLKPEDTAVYYCAGRLWAHITSSGHDVWGQGTQVTVSS
notes: Relative to ID-L253T: D1E, V40A, Q44E, R45L, I69L, L78V

EC50 [6]: 0.25 nM
B3: ID-L245T (VHH)
VHH: B2 VHH with A40V, E44Q, L45R, L69I, V78L
notes: Relative to ID-L253T: D1E

Mouse splenocyte (EC50; mIL-17 secretion, Evaluation Method C) [5]: 4.27 nM
EC50 [6]: 0.74 nM
B4: ID-L249T (VHH)
VHH: B2 VHH with E44Q, D58H, L69I, V78L
notes: Relative to ID-L253T: D1E, V40A, R45L, D58H

Mouse splenocyte (EC50; mIL-17 secretion, Evaluation Method C) [5]: 3.01 nM
EC50 [6]: 0.22 nM
B5: ID-L242T (VHH)
VHH: B2 VHH with S19R, A40V, E44Q, L45R, S60R, L69I, V78L, V92R
notes: Relative to ID-L253T: D1E, S19R, S60R, V92R

EC50 [6]: 6.95 nM
B7: ID-L250T (VHH)
VHH: B2 VHH with E44Q, L47F, D58H, L69I, V78L
notes: Relative to ID-L253T: D1E, V40A, R45L, L47F, D58H

Mouse splenocyte (EC50; mIL-17 secretion, Evaluation Method C) [5]: 5.54 nM
EC50 [6]: 0.2 nM
B8: ID-L238T (VHH)
VHH: B2 VHH with S19R, E44Q, L45R, L69I, V78L, V92R
notes: Relative to ID-L253T: D1E, S19R, V40A, V92R

Mouse splenocyte (EC50; mIL-17 secretion, Evaluation Method C) [5]: 5 nM
EC50 [6]: 0.27 nM
B9: ID-L243T (VHH)
VHH: B2 VHH with S19R, A40V, E44Q, L45R, L69I, V78L, P87S, V92R
notes: Relative to ID-L253T: D1E, S19R, P87S, V92R

Mouse splenocyte (EC50; mIL-17 secretion, Evaluation Method C) [5]: 6.62 nM
EC50 [6]: 0.24 nM
B10: ID-L244T (VHH)
VHH: B2 VHH with S19R, A40V, E44Q, L45R, L69I, V78L
notes: Relative to ID-L253T: D1E, S19R

Mouse splenocyte (EC50; mIL-17 secretion, Evaluation Method C) [5]: 4.52 nM
EC50 [6]: 0.31 nM
B12: ID-L247T (VHH)
VHH: B2 VHH with E44Q, L69I, V78L
notes: Relative to ID-L253T: D1E, V40A, R45L

Mouse splenocyte (EC50; mIL-17 secretion, Evaluation Method C) [5]: 4.47 nM
EC50 [6]: 0.17 nM
B15: ID-L248T (VHH)
VHH: B2 VHH with A40V, K43H, E44Q, L69I, V78L
notes: Relative to ID-L253T: D1E, K43H, R45L

Mouse splenocyte (EC50; mIL-17 secretion, Evaluation Method C) [5]: 3.51 nM
EC50 [6]: 0.31 nM
B16: ID-L241T (VHH)
VHH: B2 VHH with S19R, A40V, E44Q, L45R, D58H, L69I, V78L, V92R
notes: Relative to ID-L253T: D1E, S19R, D58H, V92R

EC50 [10]: 1.47 nM
B19: 10G10 (VHH)
VHH: EVQLVESGGGLVQAGTSLRLSCAASGRTFSNYIMGWFRQAPGKEREFVAIITANGVATDYRDSVKGRFTISRDNARNTGYLEMNSLKPEDTAVYFCALRTRSGSLFDPGTFDYWGQGTQVTVSS
notes: Purified primary clone made in E. coli; not shown: C-terminal FLAG and 6xHis tags from vector pMEK222

binding result [11]: binds
B21: ID-38F (VHH)
VHH: DVQLVESGGGLVQPGGSLKLSCAASGFDFSSHWMYWVRQAPGKELEWLSEINTNGLITHYGDSVKGRFTVSRNNAANKMYLELTRLEPEDTALYYCARNQHGLNKGQGTQVTVSS
notes: also called anti-TNF-alpha ICVD ID-38F

EC50 [10]: 0.546 nM
B23: 1E2 (VHH)
VHH: EVQLVESGGGLVQPGGSLRLSCAASVSIWSFKVMGWYRQVPGKQRELVATITTGGSPDYADSVKGRFTMSRDYDKRTVFLEMDSVKPEDAAVYYCNGRLWAHLTSSGHDVWGQGTQVTVSS
notes: Purified primary clone made in E. coli; also called Family L ICVD 1E2; not shown: C-terminal FLAG and 6xHis tags from vector pMEK222

The remaining lines, values behind:

B1: ID-L253T (VHH)
VHH: B2 VHH with E1D, A40V, E44Q, L45R, L69I, V78L
notes: Optimised variant of 12G1
EC50 [1]: 0.202 nM
binding result [2]: no binding
binding result [3]: no binding
binding result [4]: no binding
Mouse splenocyte (EC50; mIL-17 secretion, Evaluation Method C) [5]: 13.5 nM
EC50 [6]: 0.23 nM
Kd [7]: 0.032 nM

B6: ID-L251T (VHH)
VHH: B2 VHH with S19R, A40V, L45R, L47F, D58H, L69I, V78L
notes: Relative to ID-L253T: D1E, S19R, Q44E, L47F, D58H
Mouse splenocyte (EC50; mIL-17 secretion, Evaluation Method C) [5]: 5.74 nM
EC50 [6]: 1.99 nM

B11: ID-L239T (VHH)
VHH: B2 VHH with S19R, A40V, E44Q, L69I, V78L, V92R
notes: Relative to ID-L253T: D1E, S19R, R45L, V92R
Mouse splenocyte (EC50; mIL-17 secretion, Evaluation Method C) [5]: 3.84 nM
EC50 [6]: 0.26 nM

B13: ID-L237T (VHH)
VHH: B2 VHH with A40V, E44Q, L45R, L69I, V78L, V92R
notes: Relative to ID-L253T: D1E, V92R
Mouse splenocyte (EC50; mIL-17 secretion, Evaluation Method C) [5]: 6.35 nM
EC50 [6]: 0.24 nM

B14: ID-L210T (VHH)
VHH: B2 VHH with S19R, A40V, E44Q, L45R, L69I, V78L, V92R
notes: Relative to ID-L253T: D1E, S19R, V92R
EC50 [8]: 1.1 nM
EC50 [9]: 0.32 nM
Mouse splenocyte (EC50; mIL-17 secretion, Evaluation Method C) [5]: 5.63 nM

B17: ID-L246T (VHH)
VHH: B2 VHH with E44Q, L45R
notes: Relative to ID-L253T: D1E, V40A, I69L, L78V
EC50 [6]: 2.15 nM

B18: 10E2 (VHH)
VHH: EVQLVESGGGLAQAGGSLRLSCAPSGRAFSGSAMGWFRQVPGKEREFVGVIIWTGGYTYYADSVKGRFTISRDSAKNTVYLQMDSLKPEDTAVYYCAARTPNSSWFPTTLYEYDYWGQGTQVTVSS
notes: as for B19
EC50 [10]: 1.45 nM

B20: FA1K (bispecific antibody)
chain: DVQLVESGGGLVQPGGSLKLSCAASGFDFSSHWMYWVRQAPGKELEWLSEINTNGLITHYGDSVKGRFTVSRNNAANKMYLELTRLEPEDTALYYCARNQHGLNKGQGTQVTVSSGGGGSGGGGSKGGGGSGGGGSEVQLVESGGGQVQPGGSLSLSCESSVSIWSFKVMGWFRQVPGKQRELVATITTGGSPDYSDSVKGRFTISRDYDKRTLYLQMNSLKPEDTAVYYCAGRLWAHITSSGHDVWGQGTQVTVSS
notes: Before trypsin treatment; also called heterobihead anti-IL-23/anti-TNF-alpha construct; ID-38F-(G4S)2-K-(G4S)2-ID-L253T
binding result [11]: binds
binding result [12]: binds

B22: 12G1 (VHH)
VHH: B23 VHH with Q116R
notes: Purified primary clone made in E. coli; also called Family L ICVD 12G1; not shown: C-terminal FLAG and 6xHis tags from vector pMEK222
EC50 [10]: 0.387 nM

— patent publication US20220242945A1 (SORRISO PHARMACEUTICALS, published 2022)
